The supplement of paper PMC10567573

B1: SNAP91 (parent)
chain: FAAPSPATTASPAKVDSSGVIDLF

Variants of: B1
Test: protein stability index of a GFP-peptide fusion (GPS, HEK-293T) (PSI 1-6); higher = more stable
Details: c terminus: a fixed tail appended
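Also: lentivirally expressed fusions sorted by FACS into six bins by GFP to DsRed ratio, PSI derived from sequencing read proportions per bin multiplied by bin number.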

Variant	protein stability index
HAAPSPATTASPAKVDSSGVIDLF [F1H]	3.86
KAAPSPATTASPAKVDSSGVIDLF [F1K]	4.14
IAAPSPATTASPAKVDSSGVIDLF [F1I]	3.47
TAAPSPATTASPAKVDSSGVIDLF [F1T]	4.13
EAAPSPATTASPAKVDSSGVIDLF [F1E]	4.39
NAAPSPATTASPAKVDSSGVIDLF [F1N]	3.79
RAAPSPATTASPAKVDSSGVIDLF [F1R]	2.94
VAAPSPATTASPAKVDSSGVIDLF [F1V]	3.9
CAAPSPATTASPAKVDSSGVIDLF [F1C]	3.82
GAAPSPATTASPAKVDSSGVIDLF [F1G]	4.43
SAAPSPATTASPAKVDSSGVIDLF [F1S]	3.56
AAAPSPATTASPAKVDSSGVIDLF [F1A]	3.95
QAAPSPATTASPAKVDSSGVIDLF [F1Q]	4.28
DAAPSPATTASPAKVDSSGVIDLF [F1D]	4.3
WAAPSPATTASPAKVDSSGVIDLF [F1W]	3.01
YAAPSPATTASPAKVDSSGVIDLF [F1Y]	2.3
MAAPSPATTASPAKVDSSGVIDLF [F1M]	3.76
LAAPSPATTASPAKVDSSGVIDLF [F1L]	3.4
FAAMSPATTASPAKVDSSGVIDLF [P4M]	2.18
FAALSPATTASPAKVDSSGVIDLF [P4L]	1.93
FAAWSPATTASPAKVDSSGVIDLF [P4W]	1.76
FAAKSPATTASPAKVDSSGVIDLF [P4K]	2.08
FAAYSPATTASPAKVDSSGVIDLF [P4Y]	1.38
FAATSPATTASPAKVDSSGVIDLF [P4T]	1.67

Variant	protein stability index
FAAVSPATTASPAKVDSSGVIDLF [P4V]	2.13
FAAESPATTASPAKVDSSGVIDLF [P4E]	2.23
FAADSPATTASPAKVDSSGVIDLF [P4D]	2.33
FAAHSPATTASPAKVDSSGVIDLF [P4H]	2.26
FAARSPATTASPAKVDSSGVIDLF [P4R]	2.12
FAACSPATTASPAKVDSSGVIDLF [P4C]	1.56
FAAISPATTASPAKVDSSGVIDLF [P4I]	1.77
FAANSPATTASPAKVDSSGVIDLF [P4N]	2.43
FAAGSPATTASPAKVDSSGVIDLF [P4G]	1.95
FAASSPATTASPAKVDSSGVIDLF [P4S]	1.71
FAAASPATTASPAKVDSSGVIDLF [P4A]	1.79
FAAQSPATTASPAKVDSSGVIDLF [P4Q]	2.2
FAAFSPATTASPAKVDSSGVIDLF [P4F]	1.61
FTAPSPATTASPAKVDSSGVIDLF [A2T]	3.36
FQAPSPATTASPAKVDSSGVIDLF [A2Q]	2.17
FVAPSPATTASPAKVDSSGVIDLF [A2V]	1.69
FGAPSPATTASPAKVDSSGVIDLF [A2G]	3.57
FKAPSPATTASPAKVDSSGVIDLF [A2K]	3.08
FYAPSPATTASPAKVDSSGVIDLF [A2Y]	2.09
FRAPSPATTASPAKVDSSGVIDLF [A2R]	2.89
FCAPSPATTASPAKVDSSGVIDLF [A2C]	1.69
FLAPSPATTASPAKVDSSGVIDLF [A2L]	2.56
FMAPSPATTASPAKVDSSGVIDLF [A2M]	2.27
FFAPSPATTASPAKVDSSGVIDLF [A2F]	2.44

Variant	protein stability index
FDAPSPATTASPAKVDSSGVIDLF [A2D]	3.57
FEAPSPATTASPAKVDSSGVIDLF [A2E]	4.29
FNAPSPATTASPAKVDSSGVIDLF [A2N]	3.45
FSAPSPATTASPAKVDSSGVIDLF [A2S]	2.97
FIAPSPATTASPAKVDSSGVIDLF [A2I]	2.03
FPAPSPATTASPAKVDSSGVIDLF [A2P]	3.03
FHAPSPATTASPAKVDSSGVIDLF [A2H]	1.63
FWAPSPATTASPAKVDSSGVIDLF [A2W]	1.99
FAAPAPATTASPAKVDSSGVIDLF [S5A]	2.51
FAAPDPATTASPAKVDSSGVIDLF [S5D]	3
FAAPGPATTASPAKVDSSGVIDLF [S5G]	2.45
FAAPNPATTASPAKVDSSGVIDLF [S5N]	2.59
FAAPIPATTASPAKVDSSGVIDLF [S5I]	1.95
FAAPEPATTASPAKVDSSGVIDLF [S5E]	3.18
FAAPLPATTASPAKVDSSGVIDLF [S5L]	2.81
FAAPHPATTASPAKVDSSGVIDLF [S5H]	1.96
FAAPVPATTASPAKVDSSGVIDLF [S5V]	2.64
FAAPFPATTASPAKVDSSGVIDLF [S5F]	1.97
FAAPQPATTASPAKVDSSGVIDLF [S5Q]	2.34
FAAPRPATTASPAKVDSSGVIDLF [S5R]	2.1
FAAPYPATTASPAKVDSSGVIDLF [S5Y]	1.96
FAAPKPATTASPAKVDSSGVIDLF [S5K]	2.66
FAAPWPATTASPAKVDSSGVIDLF [S5W]	2.62
FAAPCPATTASPAKVDSSGVIDLF [S5C]	2.16

Variant	protein stability index
FAAPMPATTASPAKVDSSGVIDLF [S5M]	2.24
FAFPSPATTASPAKVDSSGVIDLF [A3F]	1.62
FACPSPATTASPAKVDSSGVIDLF [A3C]	1.99
FAEPSPATTASPAKVDSSGVIDLF [A3E]	2.17
FAIPSPATTASPAKVDSSGVIDLF [A3I]	2.28
FAMPSPATTASPAKVDSSGVIDLF [A3M]	1.92
FAVPSPATTASPAKVDSSGVIDLF [A3V]	2.46
FAWPSPATTASPAKVDSSGVIDLF [A3W]	2.09
FAYPSPATTASPAKVDSSGVIDLF [A3Y]	1.79
FAHPSPATTASPAKVDSSGVIDLF [A3H]	2.23
FALPSPATTASPAKVDSSGVIDLF [A3L]	2.33
FAKPSPATTASPAKVDSSGVIDLF [A3K]	2.38
FATPSPATTASPAKVDSSGVIDLF [A3T]	2.6
FAQPSPATTASPAKVDSSGVIDLF [A3Q]	2.31
FAGPSPATTASPAKVDSSGVIDLF [A3G]	2.32
FADPSPATTASPAKVDSSGVIDLF [A3D]	2.29
FAPPSPATTASPAKVDSSGVIDLF [A3P]	2.44
FANPSPATTASPAKVDSSGVIDLF [A3N]	1.86
FARPSPATTASPAKVDSSGVIDLF [A3R]	2.12
FASPSPATTASPAKVDSSGVIDLF [A3S]	2.61
FAAPSEATTASPAKVDSSGVIDLF [P6E]	3.08
FAAPSAATTASPAKVDSSGVIDLF [P6A]	2.18
